Measured values taken from US20160193292A1.

Molecular target: JNK-interacting protein 1 (JIP-1) (UniProt Q9WVI9)
Test: IP-FCM of lysates from OT-I T cells stimulated with OVA-Tet/α-CD28 in the presence of Tat-POSH vs Tat-cont.; competitor for POSH

JNK-interacting protein 1 (JIP-1), sequence (Q9WVI9 whole entry): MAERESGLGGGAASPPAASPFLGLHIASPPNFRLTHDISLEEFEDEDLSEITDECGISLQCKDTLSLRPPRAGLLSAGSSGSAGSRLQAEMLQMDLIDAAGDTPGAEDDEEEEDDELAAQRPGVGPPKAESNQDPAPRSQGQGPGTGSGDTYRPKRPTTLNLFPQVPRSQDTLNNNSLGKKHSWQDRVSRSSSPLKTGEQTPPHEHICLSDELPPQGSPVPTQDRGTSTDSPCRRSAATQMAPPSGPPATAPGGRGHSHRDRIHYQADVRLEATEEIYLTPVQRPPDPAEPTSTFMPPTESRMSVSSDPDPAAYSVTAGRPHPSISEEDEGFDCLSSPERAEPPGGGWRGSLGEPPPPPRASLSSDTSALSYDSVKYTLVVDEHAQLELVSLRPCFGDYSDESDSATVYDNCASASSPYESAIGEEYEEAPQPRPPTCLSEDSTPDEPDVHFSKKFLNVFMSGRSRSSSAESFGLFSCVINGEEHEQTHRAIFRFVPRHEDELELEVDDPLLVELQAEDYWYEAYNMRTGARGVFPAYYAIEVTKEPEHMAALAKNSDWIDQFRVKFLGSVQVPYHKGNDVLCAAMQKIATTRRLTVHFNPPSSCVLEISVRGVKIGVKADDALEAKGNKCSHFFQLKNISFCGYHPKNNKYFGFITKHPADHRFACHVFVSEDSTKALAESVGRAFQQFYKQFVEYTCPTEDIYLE

“Tat-POSH SH3.3 (cell-permeable peptide containing the HIV Tat protein transduction domain fused to the SH3.3 of POSH)” showed a percent of POSH/JIP-1 complexes disrupted of 30%.
